Data from article PMC11852578, “Enhanced Site-Specific Fluorescent Labeling of Membrane Proteins Using Native Nanodiscs” (Biomolecules, 2025).

Key:
[1] = target: the molecule itself; test: SEC; KvAP in 0.25% (w/v) DM micelles; Superdex 200 Increase 10/300; SEC buffer 100 mM KCl, 25 mM Tris, pH 8; size estimated against gel filtration standards
[2] = target: the molecule itself; test: fluorescence correlation spectroscopy (molecular brightness); SEC-purified, AF647-labelled protein in Glyco-DIBMA nanodiscs; brightness compared with free AF647 maleimide dye at the same laser power, assuming labelling of all monomers
[3] = target: the molecule itself; test: SEC; KvAP in Glyco-DIBMA native nanodiscs, labelled with AF647 maleimide; standard buffer 150 mM KCl, 50 mM Tris, pH 7.4; UV and fluorescence detection
[4] = target: the molecule itself; test: SDS-PAGE; HpUreI L134C purified in LDAO instead of DDM
[5] = target: the molecule itself; test: SEC; HpUreI L134C in Glyco-DIBMA native nanodiscs, labelled with AF647 maleimide; standard buffer 150 mM NaCl, 50 mM Tris, pH 7.4

Protein	stoichiometry N [1]	stoichiometry N [2]	other results
KvAP wild type, archaeal voltage-gated potassium channel from Aeropyrum pernix, in DM detergent micelles (natural protein, voltage-gated potassium channel KvAP, Aeropyrum pernix; native cysteine printed as C260; Labelling with AF647 maleimide failed in detergent, so the protein was unlabelled; also called wild-type KvAP; source: E. coli C43, pET21a-derived vector, membranes solubilised in DM, purified (Ni-NTA, SEC)) GGRVRNIGDVMEHPLVELGVSYAALLSVIVVVVEYTMQLSGEYLVRLYLVDLILVIILWADYAYRAYKSGDPAGYVKKTLYEIPALVPAGLLALIEGHLAGLGLFRLVRLLRFLRILLIISRGSKFLSAIADAADKIRFYHLFGAVMLTVLYGAFAIYIVEYPDPNSSIKSVFDALWWAVVTATTVGYGDVVPATPIGKVIGIAVMLTGISALTLLIGTVSNMFQKILVGEPEPSCSPAKLAEMVSSMSEEEFEEFVRTLKNLRRLENSMK	4		
KvAP K102C single-cysteine mutant, in DM detergent micelles (natural protein, Aeropyrum pernix, voltage-gated potassium channel KvAP, Aeropyrum pernix; native cysteine mutated to alanine and cysteine introduced at K102; Labelling failed in detergent, so the protein was unlabelled; source: E. coli C43, pET21a-derived vector, membranes solubilised in DM, purified (Ni-NTA, SEC)) GGRVRNIGDVMEHPLVELGVSYAALLSVIVVVVEYTMQLSGEYLVRLYLVDLILVIILWADYAYRAYKSGDPAGYVKCTLYEIPALVPAGLLALIEGHLAGLGLFRLVRLLRFLRILLIISRGSKFLSAIADAADKIRFYHLFGAVMLTVLYGAFAIYIVEYPDPNSSIKSVFDALWWAVVTATTVGYGDVVPATPIGKVIGIAVMLTGISALTLLIGTVSNMFQKILVGEPEPSASPAKLAEMVSSMSEEEFEEFVRTLKNLRRLENSMK	4		
KvAP E275C single-cysteine mutant, in DM detergent micelles (natural protein, Aeropyrum pernix, voltage-gated potassium channel KvAP, Aeropyrum pernix; native cysteine mutated to alanine and cysteine introduced at E275; Labelling failed in detergent, so the protein was unlabelled; source: E. coli C43, pET21a-derived vector, membranes solubilised in DM, purified (Ni-NTA, SEC)) GGRVRNIGDVMEHPLVELGVSYAALLSVIVVVVEYTMQLSGEYLVRLYLVDLILVIILWADYAYRAYKSGDPAGYVKKTLYEIPALVPAGLLALIEGHLAGLGLFRLVRLLRFLRILLIISRGSKFLSAIADAADKIRFYHLFGAVMLTVLYGAFAIYIVEYPDPNSSIKSVFDALWWAVVTATTVGYGDVVPATPIGKVIGIAVMLTGISALTLLIGTVSNMFQKILVGEPEPSASPAKLAEMVSSMSECEFEEFVRTLKNLRRLENSMK	4		
KvAP wild type labelled with AF647 maleimide, in Glyco-DIBMA native nanodiscs (natural protein, Aeropyrum pernix, Alexa Fluor 647 maleimide on the native cysteine C260, voltage-gated potassium channel KvAP, Aeropyrum pernix; native cysteine printed as C260; Same construct as m1, but labelled and in a polymer-encapsulated lipid nanodisc; also called wild-type KvAP; nanodisc-purified wild-type KvAP; source: E. coli C43, membranes extracted with Glyco-DIBMA, purified (Ni-NTA with on-column labelling, SEC)) GGRVRNIGDVMEHPLVELGVSYAALLSVIVVVVEYTMQLSGEYLVRLYLVDLILVIILWADYAYRAYKSGDPAGYVKKTLYEIPALVPAGLLALIEGHLAGLGLFRLVRLLRFLRILLIISRGSKFLSAIADAADKIRFYHLFGAVMLTVLYGAFAIYIVEYPDPNSSIKSVFDALWWAVVTATTVGYGDVVPATPIGKVIGIAVMLTGISALTLLIGTVSNMFQKILVGEPEPSCSPAKLAEMVSSMSEEEFEEFVRTLKNLRRLENSMK		~4	stoichiometry N [3]: 4
KvAP K102C single-cysteine mutant labelled with AF647 maleimide, in Glyco-DIBMA native nanodiscs (natural protein, Aeropyrum pernix, Alexa Fluor 647 maleimide on the introduced cysteine K102C, voltage-gated potassium channel KvAP, Aeropyrum pernix; native cysteine mutated to alanine and cysteine introduced at K102; Same construct as m3, but labelled and in a nanodisc; also called mutant K102C; source: E. coli C43, membranes extracted with Glyco-DIBMA, purified (Ni-NTA with on-column labelling, SEC)) GGRVRNIGDVMEHPLVELGVSYAALLSVIVVVVEYTMQLSGEYLVRLYLVDLILVIILWADYAYRAYKSGDPAGYVKCTLYEIPALVPAGLLALIEGHLAGLGLFRLVRLLRFLRILLIISRGSKFLSAIADAADKIRFYHLFGAVMLTVLYGAFAIYIVEYPDPNSSIKSVFDALWWAVVTATTVGYGDVVPATPIGKVIGIAVMLTGISALTLLIGTVSNMFQKILVGEPEPSASPAKLAEMVSSMSEEEFEEFVRTLKNLRRLENSMK		~4	
KvAP E275C single-cysteine mutant labelled with AF647 maleimide, in Glyco-DIBMA native nanodiscs (natural protein, Aeropyrum pernix, Alexa Fluor 647 maleimide on the introduced cysteine E275C, voltage-gated potassium channel KvAP, Aeropyrum pernix; native cysteine mutated to alanine and cysteine introduced at E275; Same construct as m4, but labelled and in a nanodisc; also called mutant E275C; source: E. coli C43, membranes extracted with Glyco-DIBMA, purified (Ni-NTA with on-column labelling, SEC)) GGRVRNIGDVMEHPLVELGVSYAALLSVIVVVVEYTMQLSGEYLVRLYLVDLILVIILWADYAYRAYKSGDPAGYVKKTLYEIPALVPAGLLALIEGHLAGLGLFRLVRLLRFLRILLIISRGSKFLSAIADAADKIRFYHLFGAVMLTVLYGAFAIYIVEYPDPNSSIKSVFDALWWAVVTATTVGYGDVVPATPIGKVIGIAVMLTGISALTLLIGTVSNMFQKILVGEPEPSASPAKLAEMVSSMSECEFEEFVRTLKNLRRLENSMK		~4	
HpUreI L134C single-cysteine mutant, Helicobacter pylori proton-gated urea channel, in detergent (DDM or LDAO) (natural protein, urea channel HpUreI, Helicobacter pylori; The hexamer remained unlabelled in detergent; with TCEP only aggregated and non-hexameric oligomers were labelled; also called detergent-solubilized HpUreI; source: E. coli C43, membranes solubilised in DDM or LDAO, purified (cobalt beads, HRV 3C cleavage, SEC)) MLGLVLLYVGIVLISNGICGLTKVDPKSTAVMNFFVGGLSIICNIVVITYSALHPTAPVEGAEDIAQVSHHLTSFYGPATGLLFGFTYLYAAINHTFGLDWRPYSWYSLFVAINTIPAAILSHYSDMLDDHKVCGITEGDWWAIIWLAWGVLWLTAFIENILKIPLGKFTPWLAIIEGILTAWIPAWLLFIQHWV			stoichiometry N [4]: 6
HpUreI L134C single-cysteine mutant labelled with AF647 maleimide, in Glyco-DIBMA native nanodiscs (natural protein, Alexa Fluor 647 maleimide on the introduced cysteine L134C, urea channel HpUreI, Helicobacter pylori; Same construct as m7, but labelled and in a nanodisc; no removal of the His tag is told for the nanodisc preparation; also called nanodisc-embedded HpUreI; source: E. coli C43, membranes extracted with Glyco-DIBMA, purified (Ni-NTA with on-column labelling, SEC)) MLGLVLLYVGIVLISNGICGLTKVDPKSTAVMNFFVGGLSIICNIVVITYSALHPTAPVEGAEDIAQVSHHLTSFYGPATGLLFGFTYLYAAINHTFGLDWRPYSWYSLFVAINTIPAAILSHYSDMLDDHKVCGITEGDWWAIIWLAWGVLWLTAFIENILKIPLGKFTPWLAIIEGILTAWIPAWLLFIQHWV		~6	stoichiometry N [5]: 6
